# Measurements from paper PMC4389316, “C-terminal residues of skeletal muscle calsequestrin are essential for calcium binding and for skeletal ryanodine receptor inhibition” (Skeletal Muscle, 2015).
# B1: wild-type (WT) calsequestrin type 1 (CSQ1), rabbit [rabbit] / skeletal triadin 95 kDa (trisk95) [rabbit (endogenous in skeletal muscle SR vesicles)] (parent)
# chain 1: EEGLDFPEYDGVDRVINVNAKNYKNVFKKYEVLALLYHEPPEDDKASQRQFEMEELILELAAQVLEDKGVGFGLVDSEKDAAVAKKLGLTEEDSIYVFKEDEVIEYDGEFSADTLVEFLLDVLEDPVELIEGERELQAFENIEDEIKLIGYFKNKDSEHYKAFKEAAEEFHPYIPFFATFDSKVAKKLTLKLNEIDFYEAFMEEPVTIPDKPNSEEEIVNFVEEHRRSTLRKLKPESMYETWEDDMDGIHIVAFAEEADPDGYEFLEILKSVAQDNTDNPDLSIIWIDPDDFPLLVPYWEKTFDIDLSAPQIGVVNVTDADSVWMEMDDEEDLPSAEELEDWLEDVLEGEINTEDDDDEDDDDDDDD
# chain 2: MTEITAEGNASTTTTVIDSKNGSVPKSPGKVLKRTVTEDLVTTFSSPAAWLLVIALIITWSAVAVVMFDLVDYKNFSASSIAKMGSDPLKLVHDAVEETTDWIYGFFSLLSDIISSDGDEEDDEGDEDTAKGEIEEPPLKRKDIHKEKIEKQEKPERKIPTKVVHKEKEKEKEKVKEKEKPEKKATHKEKLEKKEKPETKTVTKEEKKARTKEKIEEKTKKEVKGVKQEKVKQTVAKAKEVQKTPKPKEKESKETAAVSKQEQKDQYAFCRYMIDIFVHGDLKPGQSPAIPPPSPTEQASRPTPALPTPEEKEGEKKKAEKKVTTETKKKAEKEDAKKKSEKETDIDMKKKEPGKSPDTKPGTVKVTTQAATKKDEKKEDSKKAKKPAEEQPKGKKQEKKEKHEEPAKSTKKEHAAPSEKQAKAKIERKEEVSAASTKKAVPAKKEEKTTKTVEQETRKEKPGKISSVLKDKELTKEKEVKVPASLKEKGSETKKDEKTSKPEPQIKKEEKPGKEVKPKPPQPQIKKEEKPEQDIMKPEKTALHGKPEEKVLKQVKAVTTEKHVKPKPAKKAEHQEKEPPSIKTDKPKSTSKGMPEVTESGKKKIEKSEKEIKVPARRESHQLQNVTKAEKPARGSKEGFEDVPASKKAKEEAEEVSSTKKQKSPISFFQCVYLDGYNGYGFQFPVTPAQYPGESSGKPNSPGPKQ
# Variants of: B1
# Experiment: co-immunoprecipitation (CSQ1 IP, Western blot densitometry)
# Conditions: with skeletal triadin 95 kDa (trisk95) [rabbit (endogenous in skeletal muscle SR vesicles)]; 1 mM Ca2+; parent: 100; read off a plot
row,percent of parent (% relative binding),Variant
1,110,chain 1 EEGLDFPEYDGVDRVINVNAKNYKNVFKKYEVLALLYHEPPEDDKASQRQFEMEELILELAAQVLEDKGVGFGLVDSEKDAAVAKKLGLTEEDSIYVFKEDEVIEYDGEFSADTLVEFLLDVLEDPVELIEGERELQAFENIEDEIKLIGYFKNKDSEHYKAFKEAAEEFHPYIPFFATFDSKVAKKLTLKLNEIDFYEAFMEEPVTIPDKPNSEEEIVNFVEEHRRSTLRKLKPESMYETWEDDMDGIHIVAFAEEADPDGYEFLEILKSVAQDNTDNPDLSIIWIDPDDFPLLVPYWEKTFDIDLSAPQIGVVNVTDADSVWMEMDDEEDLPSAEELEDWLEDVLEGEINTEDDDDEDDDDDADA [chain 1 D365A D367A]
2,84,chain 1 EEGLDFPEYDGVDRVINVNAKNYKNVFKKYEVLALLYHEPPEDDKASQRQFEMEELILELAAQVLEDKGVGFGLVDSEKDAAVAKKLGLTEEDSIYVFKEDEVIEYDGEFSADTLVEFLLDVLEDPVELIEGERELQAFENIEDEIKLIGYFKNKDSEHYKAFKEAAEEFHPYIPFFATFDSKVAKKLTLKLNEIDFYEAFMEEPVTIPDKPNSEEEIVNFVEEHRRSTLRKLKPESMYETWEDDMDGIHIVAFAEEADPDGYEFLEILKSVAQDNTDNPDLSIIWIDPDDFPLLVPYWEKTFDIDLSAPQIGVVNVTDADSVWMEMDDEEDLPSAEELEDWLEDVLEGEINTEDDDDEDDDADADA [chain 1 D363A D365A D367A]
3,86,chain 1 EEGLDFPEYDGVDRVINVNAKNYKNVFKKYEVLALLYHEPPEDDKASQRQFEMEELILELAAQVLEDKGVGFGLVDSEKDAAVAKKLGLTEEDSIYVFKEDEVIEYDGEFSADTLVEFLLDVLEDPVELIEGERELQAFENIEDEIKLIGYFKNKDSEHYKAFKEAAEEFHPYIPFFATFDSKVAKKLTLKLNEIDFYEAFMEEPVTIPDKPNSEEEIVNFVEEHRRSTLRKLKPESMYETWEDDMDGIHIVAFAEEADPDGYEFLEILKSVAQDNTDNPDLSIIWIDPDDFPLLVPYWEKTFDIDLSAPQIGVVNVTDADSVWMEMDDEEDLPSAEELEDWLEDVLEGEINTEDDDDEDDDDDDDA [chain 1 D367A]
